{"source": "the DeepSol protein solubility set", "data": [{"assay": "soluble on expression in E. coli; label from the status in PepcDB or PDB records", "values": [{"sequence": "MEYNLDLARAFLQKHRIAVVEPNPPYLQFSEAQLAQQKAKLAKNLQISTACKWLFVHASTGGSATSLSIEQYAQMLNGIASETNCEIVLTAGKGESEKAYQLAAQITATKAVVYDKNDGLQDFARSIACADLFIAGSTGPLHIAGALNVATIGFYPSRLSALPRRWRPINEEGKHLEHHHHHH", "soluble on expression in E. coli": "not soluble"}, {"sequence": "GPGSMNCVQQGKVNVIADNLIPDGKMTEMIIVMKSSVSARANGECLPCDAAQLCEDLTEDIIPYVDNHYRTDADRDNRAIAGLYMGSIQASRLCITRHDLFAYPGMFSGFLSSNWNGIGTDSDHIEALRCDPAAFQAAMKVLFRCIGDDNTYRAAFEADNALLAELGAACERRIYAGSHSWQVWRQAAADFPPMLFKDLSFFPRH", "soluble on expression in E. coli": "not soluble"}, {"sequence": "MASYRKRENGLWEYRISYKTIDGKYKRKEKGGFKTKKLAQAAAIEIEKKLTQNILTNDEVTLYDFVKTWSEVYKRPYVKDKTWETYSKNFKHIKNYFQELKVKDITPLYYQKKLNEFGEKYAQETLEKFHYQIKGAMKVAVREQVVTFNFAEGAKVKSQVEPKNEEEDFLEEREYKALLALTRENIQYVSYFTLYLLAVTGLRFSEAMGLTWSDIDFKNGILDINKSFDYSNTQDFADLKNESSKRKVPIDSNTIDILREYKKNHWQANIKNRVCFGVSNSACNKLIKKIVGRKVRNHSLRHTYASFLILNGVDIVTISKLLGHESPDITLKVYTHQMEALAERNFEKIKNIFLVA", "soluble on expression in E. coli": "not soluble"}, {"sequence": "MSYKAYPFFRDILINECIYFASKNKKLVRLNYKSEAYVGVWTEESVAVSFLTSRDIPFDKVVKMDVDRFATYELDELFDEQDHIIMNQTMEEEGHLLNVVAVTQEVMTELDKIRIKEFVQDVAKYDEVYGLTKKGSKQFILISENDSDEKKPHIMPVWSIKNRALKVRDEDFEECDLITIEGSVFGEWLDELRDDHKAVAIDLKTGVVGTIVSAQKLSNELTF", "soluble on expression in E. coli": "not soluble"}, {"sequence": "YALTEGEDYLVLDKPIPQEQPGKIEVLEFFGYFCVHCHHFDPLLLKLGKALPSDTYLRTEHVVWRPEMLGLARMAAAVKLSGLKYQANSAVFKAVYEQKIRLENRAVAGKWALSQKGFDGKKLMRAYDSPEAAAVALKMQKLTEQYGIDSTPTVIVGGKYRVIFNNGFDGGVHTIKELVAK", "soluble on expression in E. coli": "not soluble"}, {"sequence": "MGSDKIHHHHHHMKFVVSSNALLKQLTAINGVITTNPVVPILENFLFEIGDGMLVVYASDLQTSMITEIAVEAKAKGSIAVPAKILLDTLKNLPEQPVTFTIDPETYSIEISSDNGRYKLSGENATDFPKVPGVKNGYSVDISTEILNRAISSTIFAASNDELKPAMTGVYVSLTESNATFVATDGHRLIRYRRTDIVSEMANTLIIPKKALNLLKASLPSENTNVKIEYNASNAFFSFNNIKMICRLIDERFPDYENAIPVDNPNVLTITRTDMMNSLKRISIYANKTTHQVRLKLAGSELQISAEDLDFSNEANERLACEFEGQDMEIGFNAKFLVEMLSNLDSPQISMHFSAPNRAGIITPADKDEHEDVLMLVMPVMLNSYA", "soluble on expression in E. coli": "not soluble"}, {"sequence": "MSLKIYFLPMLLSLFFLGACDKNDEIIPEDADENFITSVVMTVDGKSYTADITDNTVTITVPYTVSLNNAEVEFKYTTSATIIPDPETVTDWDNERTFRVTSYNGDAREYTYKVVKSEIESDGDVELKTTEEVASFAATKTTVVKGNLIIGSDAEEAEKITDISALASLKEVTGNIVIRNSYNGADLTGLDNIVSAGGLQVGSTDVASKATELHMISMKALETLSGDISVYNDQVTYVLFEKLATIEGSVMFNASSLQSFEFPVLTTVGQDLNLQGLNEENTAAGSIASLEIPELTSVGGVLSVNNLAKLTSMSFLKLKETGGLDFHTVPVMLETINLPEIETVNGSIIMEANMEAPPTGSFVPQRNDVLQAFGGMDKLTTIKGQIKIKNFTALKQLPDWSKITTLGSITLDYLEDVSGTLLLPNARFETFGETAPQIEIINKVQLSKIETAEDLSNVNFVITSLTNNKFPEITFKNIKDFTCKPTTNNTDYTISTIQHVYGNLNVTGQMRSNAKFPDLEIIDGYGYIQIPMFASITMPVLKEVGGQFYLSGNFTSCNLPLLSKVCCSASPVYYKEGEGSLAISLQSKSLDIPELLHVGGEGLFVNKATGITCDKLQTIDGTLQIKSATSLSQETLSMEKLETLHGVVFDGLTKFTDYTFFGKFIENGMITGESWSVTKCGYNPTFQNMKDKQYTEGHHHHHH", "soluble on expression in E. coli": "soluble"}, {"sequence": "MSDSPDSPPDAEPSIAARIAAVLPSLTPIHRRMGEYVLANPFRAATMRIDELANAVDASIATANRFARALGFDGYPALRAALVRGFEATLAPVERLRSAQEHEAGARGGELIDASFEQAL", "soluble on expression in E. coli": "not soluble"}, {"sequence": "MHFYKYGVLIDQLRDSFEWRVAFLDGSVSDHCCITVPSEKFNFPPTPGATVKAKFEHANSFLPSLVAQCGSFEWFRDVTVVNSKVVIFAIVHFSNECLERDPFKINGMDYSIIENENTDFQKIVLPTRVLQTSITSRSNLQNTDTPFIYRIGVCWEPISFENGVTVNWRYYADFPITPIFELYYRETTLPYIAESMVYGVLEGVVIAENDHGALFWTPKMGCAILPSTSLDTPMPSLGSVHVILVKRCIPENSFGFSCSYELLSSFRSTEWPNLKVITDQITRKVYIEANASCRSMMENQDFPSMNVPHIGKVFRGLQQYRDKLSAGHLYDFRMEFQKEEGSFVPTIVDLCLEEDEMVDCRVVYISNETSTYFAVLDPSSNSFDRFKQSIDYIAIPFRVLFCANGVHVKNEELLLNSYKVRVRVPRNRHDVVNAIHVEHVIQSPKDPAYFITNGSVWLRTTVKFQNASRYELLCPLLEQKIIDVNGVTAAMSLTQEFTVHAQFVLMERNVPVFVVRQLASTVREHPRTTNYPSRSLNLSYEVSGALARTNPNGQLSAADNNIVLINDSISLDHNLPDTGEYPTILNESSFERQLLFDNQSIADSASTSGDFILTESVYESSSAASTCTVIDRNDARFSALNDDSNILISESWLDSTNQHSETTMDTPEIITESFYESTHDQASSRASTVDRLASDVDKISIGRPDYSPPPRRRIFGYSTPGDRVRPRNSYGSSSSGSLNGRPKRRAPYGFRQIRNITPHNVLLRDIIYNNINNRKMFVEQNKNAILKCWNRLPLAQVTRTKKIFCTVIAVESIKFPPSFDDTCIKGLVRFAVVYDDMNVKNTSVVVPIGGNFNNLPKSFQLGDAYKVFHFSSYKDLICRIGGFSHGLNGELSRVAPVNCISNPETVNGRYGQRYLRCTVNAARPAISEIESDVFELWTVHGLPGFIIVEKVPLLMNHLNKEPINPDVHHQHMYTCIIEPLAGGPVEASILKDVKEGEDICIFWRLVVEFSDTVPLPRLKEKTDKVVPQIRTEPVQSGTFSVDDYGCWETLRINSILAQEKLDRMRAVGDPRVKMIDGPDLRPEIEVRKVDVNTRREKMFAAFDALLEKLPQLHSEGILGYVLEDDLRVKIKKLTPMNDNNHKFTFTFRNGSLEIGVNYLTDMLTRGKIYKVMNEMKKHVPLLKVLSDCIGLNTTYIKKTDAVKMMLHYMYRNELHTYL", "soluble on expression in E. coli": "not soluble"}, {"sequence": "SMGKEKSKEPRDPDQLYSTLKSILQQVKSHQSAWPFMEPVKRTEAPGYYEVIRFPMDLKTMSERLKNRYYVSKKLFMADLQRVFTNCKEYNPPESEYYKCANILEKFFFSKIKEAGLID", "soluble on expression in E. coli": "soluble"}, {"sequence": "MGSDKIHHHHHHMQSLYTSASTMAQLQKQLDTTGHNLANANTNGYKRRDSQFNELLVRNLNNQPAGLTPGSLTTPAGLRLGVGGYVANEATRFATGTFQNTGRKLDAALSNPHHFFGVIDADGVTKFTRDGNFELSPQANGQVLLTDDAGRSVINQANEPITFPDDATSIELNKDGNITGVLNGERRVLARIGVADIPNHGELTDVGGGLYTTAGQYQNATGNPLTVGTLETSNVDMATEMTNLTQIQRAYQFNSKALTTSDQMMGIVTSLK", "soluble on expression in E. coli": "not soluble"}, {"sequence": "MGSDKIHHHHHHMQTIQLSNIFKQQAHQTILKDFTLTIPAQSNIGIQMSHVEATTLFNLLRQTTPQTSGVMTGLTPARIQAIFHDDGFYPQLTVSTYLKTFQHISTFETDLDDILQYFALKDVAHTKIKHLSFDQQQRLALLRAFILQPDLLLIESPLTNLTNAGIELYLAALAYTREHGVTVLLTSYSLEELVLTSTTIFRYRPNQGLELTDLATESSSDSAHTSEDTPRPIFKIASKVEDKTVFFSPNEIDFIESVNGVSQLNVSGEQFTSSQTMSELEQQLTTLGFFRCHRSYLVNLQQIAELISYSRNSYTLILKNKSKLPLSRGKLTDLKALINF", "soluble on expression in E. coli": "not soluble"}, {"sequence": "MHTVAVSGPPETGFRSVVCARRWLANPYAPGRPTVRCMNVDDHAEELASDLGVDKAEVKENLQNLVEYSVPLEEAKRSLRRKYGDDDGAPSGGPTAVDIADVDTDSGNVTVTATVLTAGKRSIRYQGDDHVIGEGELADETGRISYTAWEEFGLEPGDTVTIGNASVREWEGSPELNFGESATVTSADGDIEMAAEVGGDRDLAALSAGDRGRNVEAVVTEVEERTIDGRDGETEILSGVLGDETARLPFTDWDPHGEIEAGASVRIEDVYVREFRGVPSVNVSEFSTVERLDHEVEVGGPTRMAIRDAVARGGAYDVELVGSVIDIRDGSGLIKRCPDCGRVVQTGQCRQHGAVEAEDDLRVKAVLDDGTDSVTAILDRELTADVYGGTLADAREQAREAMDHSVVADTIAEDVVGREFRVRGHLSVDEYGANLETIAFAERDDDPAARAAAFLAEVDALEHHHHHH", "soluble on expression in E. coli": "not soluble"}, {"sequence": "MNLDQAEITALTKRFETPFYLYDGDFIEAHYRQLRSRTNPAIQFYLSLKANNNIHLAKLFRQWGLGVEVASAGELALARHAGFSAENIIFSGPGKKRSELEIAVQSGIYCIIAESVEELFYIEELAEKENKTARVAIRINPDKSFGSTAIKMGGVPRQFGMDESMLDAVMDAVRSLQFTKFIGIHVYTGTQNLNTDSIIESMKYTVDLGRNIYERYGIVCECINLGGGFGVPYFSHEKALDIGKITRTVSDYVQEARDTRFPQTTFIIESGRYLLAQAAVYVTEVLYRKASKGEVFVIVDGGMHHHAASTFRGRSMRSNYPMEYIPVREDSGRRELEKVTIAGPLCTPEDCLGKDVHVPALYPGDLVCVLNSGAYGLSFSPVHFLGHPTPIEILKRNGSYELIRRKGTADDIVATQLQTESNLLFVDK", "soluble on expression in E. coli": "soluble"}, {"sequence": "MGSDKIHHHHHHMKVRFLQISDLHFQFQNYDTIVMRDKLLDFIEVLRRESDFDFLLLTGDIAHKGDVYNEDVKEYLNGIIKSMGLSKNNVHLVPGNHDISRDMTRTLLIDSIMKSPNPSEMLDKLDQKATNILVEGQRKFFDFYEDFMGVKYPEEDLHFLYQSEKYNVLSINTCLLSDKKGEEGTLLTAQMKLYKAIRKMNKEKNKGKVLNIAIGHHTLGCIESSERESIKAHFDDYFIDLYLAGHVHDSSFNITANTNENPFLELVSGAIIKDEYATPEFISVDVNLDNGETEVTYYIWNTEYKYWSKNNQGGRRLQEGKLNYKINRLESLIEKEIEDNDDKIDEDEFKSFIIDFHEYRESYKTFTSNFDNQIGLDKKFYDMKSGETFKRKFDSYSEYFGVINHIMDSTSYVSADKKELIAETIVDKYLEFHNQYNNGDEIFVKIVNEIYLECHSVLPYSKALTKKYIKILTCWCIYECEIFNDNKRSVKND", "soluble on expression in E. coli": "not soluble"}, {"sequence": "MSDVIEQYFVKNEPYYRPVADEVKLYEAAYSVRMPMMLKGPTGCGKTRFVEYMAWKLGKPLITVACNEDMTASDLVGRFLLDAQGTRWQDGPLTTAARYGAICYLDEVVEARQDTTVVIHPLTDNRRVLPLEKKGELVGAHPDFQLVISYNPGYQSLMKDLKQSTKQRFGALDFNYPQHDIETEIVSHETGIDSAIADKLVSIAERARNLKGHGLDEGISTRMLIYAGNLIAKGVDVHAACRMALVRPITDDPDMRDALDAAVTTFFLEHHHHHH", "soluble on expression in E. coli": "soluble"}, {"sequence": "MGSDKIHHHHHHMNTNTSITIQKPKTDELLLWNLLFADTGRQVLLVAYDIKLFPLLSQKPCTLAEICNELKIFQRPAEAILAVLASIELLEIENNYYSLTLLAKDYLVKSSPTYFGALLEMMIFDERKHISSFDSLKKSLFTNNYPGKKVMESLVKNHDFMRTITFGNNVKLIRGFISSMHGPSMAAALIWPELIDLSEYKLFIDIGGGSAAHSIGATLKWPNLQAVVLELPTVCEIAQEFITHYGLQNRIATQEFDMWSDTFPVGDLHFYSAVYHHWQQEKCQVITKKSFNSLLPGGRIILHEMLFNEQKTGPFPVAAKNLNISLKLGGQQYSGQELSMMLEQAGFIDIEIKPASSYWSIITGRKP", "soluble on expression in E. coli": "not soluble"}]}]}
